By Kd is commonly meant the free concentration of one partner at which half of the binding sites on the other are occupied at equilibrium, for simple one-to-one binding. For orientation: koff means the first-order rate constant of dissociation. For orientation: kon means the second-order rate constant of association. What is called stoichiometry N is a count of units in the complex or per binding partner.

B3: MBP-fused extracellular domain of human JAM4 (Gly34-Arg286) (domain or fragment, UniProt Q9NSI5 34-286, looked up)
chain: GSGSGNEVIEGPQNARVLKGSQARFNCTVSQGWKLIMWALSDMVVLSVRPMEPIITNDRFTSQRYDQGGNFTSEMIIHNVEPSDSGNIRCSLQNSRLHGSAYLTVQVMGELFIPSVNLVVAENEPCEVTCLPSHWTRLPDISWELGLLVSHSSYYFVPEPSDLQSAVSILALTPQSNGTLTCVATWKSLKARKSATVNLTVIRCPQDTGGGINIPGVLSSLPSLGFSLPTWGKVGLGLAGTMLLTPTCTLTIR
notes: JAM4, human, extracellular domain, Gly34-Arg286 of Q9NSI5; No protease site between MBP and the target in the final design; Decamer by size exclusion; source: E. coli SHuffle T7 Express, purified (amylose resin, size exclusion chromatography); not shown: MBP, N-terminal, kept
B4: MBP-fused extracellular domain of human JAM-B (Gly28-Ser238) (domain or fragment, UniProt P57087 28-238, looked up)
chain: GFSAPKDQQVVTAVEYQEAILACKTPKKTVSSRLEWKKLGRSVSFVYYQQTLQGDFKNRAEMIDFNIRIKNVTRSDAGKYRCEVSAPSEQGQNLEEDTVTLEVLVAPAVPSCEVPSSALSGTVVELRCQDKEGNPAPEYTWFKDGIRLLENPRLGSQSTNSSYTMNTKTGTLQFNTVSKLDTGEYSCEARNSVGYRRCPGKRMQVDDLNIS
notes: JAM-B, human, extracellular domain, Gly28-Ser238 of P57087; No protease site between MBP and the target in the final design; Octamer by size exclusion; also called junctional adhesion molecule B; source: E. coli SHuffle T7 Express, purified (amylose resin, size exclusion chromatography); not shown: MBP, N-terminal, kept
B5: MBP-fused extracellular domain of human JAM-A (Gly27-Arg228) (domain or fragment, UniProt Q9Y624 27-228, looked up)
chain: GSVTVHSSEPEVRIPENNPVKLSCAYSGFSSPRVEWKFDQGDTTRLVCYNNKITASYEDRVTFLPTGITFKSVTREDTGTYTCMVSEEGGNSYGEVKVKLIVLVPPSKPTVNIPSSATIGNRAVLTCSEQDGSPPSEYTWFKDGIVMPTNPKSTRAFSNSSYVLNPTTGELVFDPLSASDTGEYSCEARNGYGTPMTSNAVR
notes: JAM-A, human, extracellular domain, Gly27-Arg228 of Q9Y624; No protease site between MBP and the target in the final design (pET28a-MBP, NdeI/XhoI); also called junctional adhesion molecule A; source: E. coli SHuffle T7 Express, purified (amylose resin, size exclusion chromatography); not shown: MBP, N-terminal, kept

Data set [1] deals with the molecule itself. In words: SPR; OpenSPR (Nicoya), ligand protein (0.100 mg) amine-coupled to a Carboxy sensor chip; 1 M sodium caprate injected to disrupt preformed interactions and after each analyte; analyte 12.5-100 ug per 200 uL injection, triplicate; global fit, 1:1 Langmuir model, TraceDraw. A general note: SPR reads the build-up and loss of mass on a sensor chip optically.

For data set [2], the target named is B3. The data set is described as above. The following applies: both partners purified.
For data set [3], the target named is B4. The description is as above. The conditions noted are these: both partners purified.
Data set [4] deals with the molecule itself. As to the kind of experiment: SEC; ENrich SEC 650 10 x 300 column, PBS as running buffer; peak positions compared with BioRad size exclusion standards; oligomeric state of the MBP fusion. A general note: In gel filtration, larger molecules generally elute earlier.
Data set [5] concerns the molecule itself. As to the kind of experiment: SPR; as the other SPR (OpenSPR, amine-coupled ligand on a Carboxy chip, caprate between injections, 1:1 Langmuir fit) but in the presence of 3 mM CaCl2 (E-CAD experiments).
The target in data set [6] is B5. The description is as above. The conditions noted are these: both partners purified.

B1: MBP-fused extracellular domain of human JAM-C (Gly30-Glu236) (domain or fragment, UniProt Q9BX67 30-236, looked up)
chain: GAVNLKSSNRTPVVQEFESVELSCIITDSQTSDPRIEWKKIQDEQTTYVFFDNKIQGDLAGRAEILGKTSLKIWNVTRRDSALYRCEVVARNDRKEIDEIVIELTVQVKPVTPVCRVPKAVPVGKMATLHCQESEGHPRPHYSWYRNDVPLPTDSRANPRFRNSSFHLNSETGTLVFTAVHKDDSGQYYCIASNDAGSARCEEQEME
notes: JAM-C, human, extracellular domain, Gly30-Glu236 of Q9BX67; No protease site between MBP and the target in the final design; Tetramer by size exclusion; also called junctional adhesion molecule C; source: E. coli SHuffle T7 Express, purified (amylose resin, size exclusion chromatography); not shown: MBP, N-terminal, kept
On to B1, for which the Kd stood at 30.2 nM in data set [1], 0.0925 nM in data set [2] and 0.203 nM in data set [3]. Further, the koff in data set [1] amounted to 2.26e-05 s⁻¹; in data set [2], 1.96e-07 s⁻¹; in data set [3], 1.76e-05 s⁻¹. Also, the kon in data set [1] turned out to be 782 M⁻¹ s⁻¹; in data set [2], 2030 M⁻¹ s⁻¹; in data set [3] it was 85400 M⁻¹ s⁻¹. The “stoichiometry N” value in data set [4] turned out to be 4.

B2: MBP-fused extracellular domain of human epithelial cadherin (Val102-Asp312) (domain or fragment)
chain: VIPPISCPENEKGPFPKNLVQIKSNKDKEGKVFYSITGQGADTPPVGVFIIERETGWLKVTEPLDRERIATYTLFSHAVSSNGNAVEDPMEILITVTDQNDNKPEFTQEVFKGSVMEGALPGTSVMEVTATDADDDVNTYNAAIAYTILSQDPELPDKNMFTINRNTGVISVVTTGLDRESFPTYTLVVQAADLQGEGLSTTATAVITVTD
Regarding B2, in data set [5], the Kd turned out to be 197 nM, the koff was 0.000696 s⁻¹ and the kon was found to be 4650 M⁻¹ s⁻¹. For the same molecule, in data set [6], the Kd was 308 nM, the koff is 0.000708 s⁻¹ and the kon was determined as 2340 M⁻¹ s⁻¹. Also, in data set [4], the “stoichiometry N” value stood at 2.
In data set [1], B3 gave a dissociation constant Kd of 0.139 nM, a koff of 2.04e-07 s⁻¹ and a kon of 1670 M⁻¹ s⁻¹. For the same molecule, the “stoichiometry N” value in data set [4] turned out to be 10.
Consider B4, for which, in data set [1], the Kd stood at 9.97 nM, the koff stood at 5.36e-05 s⁻¹ and the kon was 4800 M⁻¹ s⁻¹. In data set [2], this molecule had a Kd of 159 nM, a koff of 0.000128 s⁻¹ and a kon of 1210 M⁻¹ s⁻¹. Moreover, in data set [4], the “stoichiometry N” value worked out at 8.
In the case of B5, the Kd in data set [1] turned out to be 76.6 nM; in data set [2] it was 2.33 nM; in data set [3], 2.82 nM. The results for the koff in data set [1], in data set [2] and in data set [3] were 0.000838 s⁻¹, 4.09e-06 s⁻¹ and 5.09e-05 s⁻¹, respectively. Besides, the figures for the kon in data set [1], in data set [2] and in data set [3] were 13100 M⁻¹ s⁻¹, 1600 M⁻¹ s⁻¹ and 16500 M⁻¹ s⁻¹, respectively. The “stoichiometry N” value in data set [4] stood at 2.
